Molecular target: T1, GFP-MYO7A (mouse) (mouse, UniProt P97479 1-2215)
T1 construct: MYO7A (myosin VIIA), mouse, in pEGFP-C1; plasmid obtained from David Corey; source: HEK293, transfected, in RIPA extract; not shown: GFP, N-terminal, kept
Assay: affinity purification with mass spectrometry; HEK293 cells transfected; RIPA extract; 138-1 immunoprecipitates analysed by shotgun mass spectrometry, two technical replicates
Details: partners not purified

T1 sequence (P97479 whole entry): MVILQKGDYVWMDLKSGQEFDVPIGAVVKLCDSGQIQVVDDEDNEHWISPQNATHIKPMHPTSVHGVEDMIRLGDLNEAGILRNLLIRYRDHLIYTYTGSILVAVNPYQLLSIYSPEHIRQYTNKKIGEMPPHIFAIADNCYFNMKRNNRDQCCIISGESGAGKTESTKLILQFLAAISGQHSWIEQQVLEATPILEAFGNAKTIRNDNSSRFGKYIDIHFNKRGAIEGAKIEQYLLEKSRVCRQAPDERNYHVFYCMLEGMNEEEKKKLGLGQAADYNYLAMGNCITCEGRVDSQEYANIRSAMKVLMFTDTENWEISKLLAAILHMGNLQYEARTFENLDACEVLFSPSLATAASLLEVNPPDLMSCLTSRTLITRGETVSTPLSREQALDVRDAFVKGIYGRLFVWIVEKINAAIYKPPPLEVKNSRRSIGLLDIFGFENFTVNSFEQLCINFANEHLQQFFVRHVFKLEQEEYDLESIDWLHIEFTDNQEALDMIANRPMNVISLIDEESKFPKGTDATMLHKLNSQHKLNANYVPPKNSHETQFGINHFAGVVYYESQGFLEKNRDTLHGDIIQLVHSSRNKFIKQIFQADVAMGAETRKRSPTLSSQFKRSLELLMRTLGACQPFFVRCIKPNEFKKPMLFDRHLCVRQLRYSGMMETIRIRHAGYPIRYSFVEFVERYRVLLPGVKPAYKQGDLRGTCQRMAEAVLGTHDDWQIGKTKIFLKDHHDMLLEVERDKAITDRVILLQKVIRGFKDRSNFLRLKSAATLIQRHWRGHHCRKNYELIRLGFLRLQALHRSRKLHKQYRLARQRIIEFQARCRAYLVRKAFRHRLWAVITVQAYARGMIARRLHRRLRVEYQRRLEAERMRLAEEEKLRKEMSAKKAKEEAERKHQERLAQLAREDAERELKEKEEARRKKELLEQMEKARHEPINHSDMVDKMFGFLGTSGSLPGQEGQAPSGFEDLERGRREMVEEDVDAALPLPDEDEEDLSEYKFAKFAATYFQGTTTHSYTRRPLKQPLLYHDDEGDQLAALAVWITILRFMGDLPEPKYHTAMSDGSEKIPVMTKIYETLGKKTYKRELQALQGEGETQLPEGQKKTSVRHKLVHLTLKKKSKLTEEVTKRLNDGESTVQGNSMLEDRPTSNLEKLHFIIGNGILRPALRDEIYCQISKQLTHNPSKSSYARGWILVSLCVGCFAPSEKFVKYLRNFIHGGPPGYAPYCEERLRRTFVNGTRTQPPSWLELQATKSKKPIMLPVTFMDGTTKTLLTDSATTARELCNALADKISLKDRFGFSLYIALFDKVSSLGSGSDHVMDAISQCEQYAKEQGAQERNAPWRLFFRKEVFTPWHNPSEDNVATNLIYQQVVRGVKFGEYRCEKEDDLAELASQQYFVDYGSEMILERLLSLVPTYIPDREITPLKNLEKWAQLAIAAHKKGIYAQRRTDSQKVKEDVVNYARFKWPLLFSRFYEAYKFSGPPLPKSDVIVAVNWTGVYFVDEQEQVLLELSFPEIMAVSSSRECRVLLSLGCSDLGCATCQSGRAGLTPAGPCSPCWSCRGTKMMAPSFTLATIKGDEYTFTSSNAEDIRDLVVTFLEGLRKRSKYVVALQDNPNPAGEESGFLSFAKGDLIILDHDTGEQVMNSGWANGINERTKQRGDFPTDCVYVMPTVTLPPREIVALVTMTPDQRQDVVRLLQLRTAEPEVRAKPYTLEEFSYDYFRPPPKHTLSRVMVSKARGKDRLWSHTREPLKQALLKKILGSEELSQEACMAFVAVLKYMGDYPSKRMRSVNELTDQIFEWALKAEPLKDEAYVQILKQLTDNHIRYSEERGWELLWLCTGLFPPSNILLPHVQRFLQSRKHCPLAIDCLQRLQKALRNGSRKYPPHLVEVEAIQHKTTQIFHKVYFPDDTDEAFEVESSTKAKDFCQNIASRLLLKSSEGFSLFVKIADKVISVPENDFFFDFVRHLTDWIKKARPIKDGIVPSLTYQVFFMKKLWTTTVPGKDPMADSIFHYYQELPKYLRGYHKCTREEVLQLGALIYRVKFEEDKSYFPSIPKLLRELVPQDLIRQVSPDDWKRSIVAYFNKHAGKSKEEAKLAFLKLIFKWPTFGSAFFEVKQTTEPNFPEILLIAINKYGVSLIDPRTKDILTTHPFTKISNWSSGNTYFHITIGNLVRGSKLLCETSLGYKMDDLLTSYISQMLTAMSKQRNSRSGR

B1: mCherry-PDZD7 (mouse), in HEK293 (natural protein, UniProt E9Q9W7 1-1021, looked up)
chain: MARGFTVGFDPLGLGELSSGSLSSVSSRGHLGSDSGSTATRYLLRKQQRLLNGPSRGIRASSPMGRVILINSPIEANSDESDIIHAVRVEKSPSGRLGFSVRGGSEHGLGIFVSKVEEGSSAERAGLCVGDKITEVNGLSLESTTMGSAVRLLTSSSCLHMMVRRMGRVPGIKFSKEKTTWVDVVNRRLVVEKCSSTPSDRSSEDGVRRIVHLYTTSDDFCLGFNIRGGKEFGLGIYVSKVDHGGLAEENGIKVGDQVLAANGVRFDDISHSQAVEVLKGQTHIMLTIKETGRYPAYKEMVSEYCWLDRLSNGVLQQLSPASESSSSVSSYASSAPCSSGSLPSDRMDVCLGPEEPTSHGPGWGRADTAMQTEPDLDSRVETWCSVRPTVILRDTAIRSDGPSSTRHLDSALSESPKTALLLALSRPRTPITRSQSHLTLWEEKKQRKKEKSGSSGEKGALQRSKTLMNLFFKGGRQGRPAGDGHREAWTLDSRSPTKVRPRLDLEKAGSVGPVQKFVTWRLRRDRERGRALLSARSGSPSGQAPTVNEQVQAWESRRPLIQDLARRLLTDDEVLAVTRHCSRYVHEGGVEDLVRPLLAILDRPTKLLLLRDIRSVVAPTDLGRFDSMVMPVELEAFEALKSRAVGPSALRPTRQDTPPKRHLITPVPDSRGGFYLLPVNSSEDEDGEIREKLGVLKVSLGASAPHHKGIPPLQDVPVDAFSLRRGACAPPPQPPPVAPRPPRPNWLLTEPLSREDTQQNQSQTPAQSCSRSRSRSRSRSHSRGQGKSPGRRRSPSPAPIATAATANGRYHRPRKARPLLPRLLDGQVAKVGARQGPLENGRIAEEAVGNVSTGALRTITLSKMKQSLGISISGGIESKVQPMVKIEKIFPGGAAFLCGDLQAGFELVAVDGESLEQVTHQRAVDTIRRAYRNKAREPMELVVRVPGPGLLPLASDLRVVKDQSLAPDCPSALGPVDDARILTQLPPPEARQLQQSLSSALKVPQSIPKLSPILKDPHDPS
notes: PDZD7, mouse, cloned into pmCherry-C1; also called PDZD7 fused to mCherry; source: HEK293, transfected, in RIPA extract; not shown: mCherry, N-terminal, kept
With B1 the “level in the 138-1 immunoprecipitate relative to MYO7A” value was roughly 0.4 x.
